Data: article PMC11289257 (2024)

B1: porcine antibody G6 (class IV) (Fab, V domains shown)
VH: EVKLVESGGGLVQPGGSLTLSCVGSGYTFSSYPICWVRQAPGKGLEWLSCIDSSGSKMHLADSVLSRFTISKDNSQNTAYLQMNSLRTEDTARYYCARGRWCYGVICDMDLWGPGVEVVVSS
VL: IVLTQTPLSLSVSPGEPASISCRSSQSLEEYGKNWLSWYQQKPGQSPRLLIYQATNRASWVPERFSGSGSGTDFTLKISRVEAEDAGVYYCQQYKEFPWTFGQGTKLELK
B2: porcine antibody B1 (class I) (Fab, V domains shown)
VH: EVKLVESGGGLVQPGGSLKLSCVGSGSTFSSDAVSWVRQAPGKGLEWLAGIDGDGGGGSTYYADSVKGRFTISRDNSQKTAYLQMNSLRTDDTARYYCAECPMVLLAKCSMEFWGPGVEVVVS
VL: DIVLTQTPRSLSVSPGEPASISCRSSQSLEEYGKNWLSWYQQKPGQSPRLLIYQATNRASWVPERFSGSGSGTDFTLKISRVEAEDVGVYYCFQDLQPPNGFGAGTKLELK
B3: porcine antibody C9 (class III) (Fab, V domains shown)
VH: EVKLVESGGGLVQPGGSLRLSCVGSGFTFSSYEINWVRQAPGKGLEWLAVVSKIGDRTYYADSVRGRLTISRDNSQNTAYLQMNSLRTEDTARYYCVRAWCASTCLPGDIMDLWGPGVGVVVSS
VL: QTVIQEPAMSVSPGGTVTLTCAWSSGSVTTSNYPSWFQQTPGQPPRQLIYNTNSRPTGVPRRFSGKISGNKAALTITGAQAEDEADYFCGLYKRSANNIFGGGTHLTVL
B4: porcine antibody H3 (class III) (Fab, V domains shown)
VH: QEKLVESGGGLVQPGGSLILSCVGSGFTFITYEINWVRQAPGKGLEWLAVVSKIGDRTYYAHSVRGRLTISRDNSQNTAYLQMNSLRTEDTARYYCVRAWCATTCLPGDIMDLWGPGVGVIV
VL: TVIHEPAMSLSPGGTDTLTCAFSSGSITNNNYPSWFQQTPRQPPRLLIYNTNNRPTGVPSRFSGAISGNKAALTITGAQANDEADYFCTLYISIADVIFGGGTHLTVL
B5: porcine antibody F11 (class II) (Fab, V domains shown)
VH: EEKLVESGGGLVKPGGSLKLSCVGSGSTFSSDAVSWVRQAPGKGLEWLAGIDGDGYGVSTYYADSVKGRFTISRDNSQKTAYLQMNSLRTDDTARYYCAECPMVLLAKCSMEFWGPGVEVVVSS
VL: QTVIQEPAMSVSLGGTVTLTCAFSSGSVTSSNYPGWFQQTPGQPPRLLIYQTNSRPTGVPSRFSGAISGNRAALTITGAQAEDEADYFCGLWKSGTDLPFGGGTHLTVL
B6: porcine antibody F5 (class II) (antibody, V domains shown)
VH: B5 VH
VL: QTVIQEPAMSVSPGGTVTLTCAFSSGSVTTRNYPSWFQQTPGQPPRLLIGRTNNRPTGVPSRFSGVISGNKAALVITGAQANDEATYFCSLYSPDTIIFGSGTHLTVL

What was measured:
[1] = target: T1, African swine fever virus major capsid protein p72 (p72 capsomer, trimer) (African swine fever virus, UniProt P22776); assay: SPR
[2] = target: T1, African swine fever virus major capsid …; assay: SPR; remark: listed apart in the source

Binder | Kd [1] [µM] | koff [2] [s⁻¹]
B1 | 1.92 | 0.00952
B2 | 0.00312 | 7.08e-05
B3 | 1.49 | 0.00893
B4 | 0.998 | 0.00494
B5 | 0.00913 | 0.000267
B6 | 3.16 | 0.0134
